# B1: NIF3-like protein 1 (Homo sapiens), Q9GZT8 (parent)
# chain: MLSSCVRPVPTTVRFVDSLICNSSRSFMDLKALLSSLNDFASLSFAESWDNVGLLVEPSPPHTVNTLFLTNDLTEEVMEEVLQKKADLILSYHPPIFRPMKRITWNTWKERLVIRALENRVGIYSPHTAYDAAPQGVNNWLAKGLGACTSRPIHPSKAPNYPTEGNHRVEFNVNYTQDLDKVMSAVKGIDGVSVTSFSARTGNEEQTRINLNCTQKALMQVVDFLSRNKQLYQKTEILSLEKPLLLHTGMGRLCTLDESVSLATMIDRIKRHLKLSHIRLALGVGRTLESQVKVVALCAGSGSSVLQGVEADLYLTGEMSHHDTLDAASQGINVILCEHSNTERGFLSDLRDMLDSHLENKINIILSETDRDPLQVV
# B2: Ribosome biogenesis protein SLX9 homolog (Homo sapiens), Q9NSI2 (parent)
# chain: MGKVRGLRARVHQAAVRPKGEAAPGPAPPAPEATPPPASAAGKDWAFINTNIFARTKIDPSALVQKLELDVRSVTSVRRGEAGSSARSVPSIRRGAEAKTVLPKKEKMKLRREQWLQKIEAIKLAEQKHREERRRRATVVVGDLHPLRDALPELLGLEAGSRRQARSRESNKPRPSELSRMSAAQRQQLLEEERTRFQELLASPAYRASPLVAIGQTLARQMQLEDGGQL
# partner: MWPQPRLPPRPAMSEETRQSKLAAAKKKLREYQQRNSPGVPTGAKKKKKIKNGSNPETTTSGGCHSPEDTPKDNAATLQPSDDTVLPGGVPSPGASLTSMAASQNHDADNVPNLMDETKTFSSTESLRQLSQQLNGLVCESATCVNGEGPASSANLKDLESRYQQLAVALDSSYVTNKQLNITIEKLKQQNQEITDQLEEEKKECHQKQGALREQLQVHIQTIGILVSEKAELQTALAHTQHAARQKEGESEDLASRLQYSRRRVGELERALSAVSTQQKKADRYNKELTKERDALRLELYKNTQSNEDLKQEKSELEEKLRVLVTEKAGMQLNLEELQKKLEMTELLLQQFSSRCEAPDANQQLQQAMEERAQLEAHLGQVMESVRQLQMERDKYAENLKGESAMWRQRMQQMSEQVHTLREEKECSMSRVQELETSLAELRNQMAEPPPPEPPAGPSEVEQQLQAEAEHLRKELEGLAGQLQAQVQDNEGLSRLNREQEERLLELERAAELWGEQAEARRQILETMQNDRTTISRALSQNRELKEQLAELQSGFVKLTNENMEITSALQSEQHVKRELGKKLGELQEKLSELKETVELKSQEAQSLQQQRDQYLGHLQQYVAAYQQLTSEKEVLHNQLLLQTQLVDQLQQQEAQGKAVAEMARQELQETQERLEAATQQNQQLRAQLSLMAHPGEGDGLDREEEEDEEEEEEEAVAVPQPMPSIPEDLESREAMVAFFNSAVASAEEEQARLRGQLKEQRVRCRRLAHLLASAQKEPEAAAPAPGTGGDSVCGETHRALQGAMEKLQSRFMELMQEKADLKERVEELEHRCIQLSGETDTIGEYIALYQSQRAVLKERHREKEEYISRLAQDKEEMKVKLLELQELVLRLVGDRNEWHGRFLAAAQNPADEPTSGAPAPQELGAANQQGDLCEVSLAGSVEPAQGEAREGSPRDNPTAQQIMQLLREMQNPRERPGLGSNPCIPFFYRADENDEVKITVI
# B3: Protein FAM9B (Homo sapiens), Q8IZU0 (parent)
# chain: MAAWGKKHAGKDPVRDECEERNRFTETREEDVTDEHGEREPFAETDEHTGANTKKPEDTAEDLTAKRKRMKMDKTCSKTKNKSKHALRKKQLKRQKRDYIHSLKLLNVLEEYITDEQKEEEEEEGEEEELIRIFQEQQKKWQQYRSVRRERLKEMKLLRDQFVKALEDFEDLCDRVFSDEDSELDN
# partner: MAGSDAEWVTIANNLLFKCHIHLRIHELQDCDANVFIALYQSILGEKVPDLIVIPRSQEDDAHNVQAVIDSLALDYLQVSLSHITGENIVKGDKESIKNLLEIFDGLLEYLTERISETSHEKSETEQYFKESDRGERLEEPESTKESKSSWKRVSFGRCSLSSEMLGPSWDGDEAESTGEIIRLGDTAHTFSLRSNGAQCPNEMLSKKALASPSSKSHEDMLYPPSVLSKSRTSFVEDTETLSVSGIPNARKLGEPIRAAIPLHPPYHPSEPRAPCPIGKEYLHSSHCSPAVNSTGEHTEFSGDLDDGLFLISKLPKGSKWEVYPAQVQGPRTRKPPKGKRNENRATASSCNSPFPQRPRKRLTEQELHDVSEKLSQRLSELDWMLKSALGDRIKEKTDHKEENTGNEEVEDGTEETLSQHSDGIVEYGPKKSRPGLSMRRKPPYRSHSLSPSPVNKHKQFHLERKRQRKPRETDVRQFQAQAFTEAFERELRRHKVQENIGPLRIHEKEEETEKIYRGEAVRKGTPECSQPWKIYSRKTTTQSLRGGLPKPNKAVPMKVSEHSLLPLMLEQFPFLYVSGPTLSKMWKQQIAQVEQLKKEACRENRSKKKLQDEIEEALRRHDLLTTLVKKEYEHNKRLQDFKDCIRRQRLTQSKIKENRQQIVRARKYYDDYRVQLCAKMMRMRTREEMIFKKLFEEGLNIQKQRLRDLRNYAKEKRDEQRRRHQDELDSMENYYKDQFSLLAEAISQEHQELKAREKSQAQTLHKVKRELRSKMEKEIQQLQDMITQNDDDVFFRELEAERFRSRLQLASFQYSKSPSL
# B4: Four and a half LIM domains protein 2 (Homo sapiens), Q14192 (parent)
# chain: MTERFDCHHCNESLFGKKYILREESPYCVVCFETLFANTCEECGKPIGCDCKDLSYKDRHWHEACFHCSQCRNSLVDKPFAAKEDQLLCTDCYSNEYSSKCQECKKTIMPGTRKMEYKGSSWHETCFICHRCQQPIGTKSFIPKDNQNFCVPCYEKQHAMQCVQCKKPITTGGVTYREQPWHKECFVCTACRKQLSGQRFTARDDFAYCLNCFCDLYAKKCAGCTNPISGLGGTKYISFEERQWHNDCFNCKKCSLSLVGRGFLTERDDILCPDCGKDI
# partner: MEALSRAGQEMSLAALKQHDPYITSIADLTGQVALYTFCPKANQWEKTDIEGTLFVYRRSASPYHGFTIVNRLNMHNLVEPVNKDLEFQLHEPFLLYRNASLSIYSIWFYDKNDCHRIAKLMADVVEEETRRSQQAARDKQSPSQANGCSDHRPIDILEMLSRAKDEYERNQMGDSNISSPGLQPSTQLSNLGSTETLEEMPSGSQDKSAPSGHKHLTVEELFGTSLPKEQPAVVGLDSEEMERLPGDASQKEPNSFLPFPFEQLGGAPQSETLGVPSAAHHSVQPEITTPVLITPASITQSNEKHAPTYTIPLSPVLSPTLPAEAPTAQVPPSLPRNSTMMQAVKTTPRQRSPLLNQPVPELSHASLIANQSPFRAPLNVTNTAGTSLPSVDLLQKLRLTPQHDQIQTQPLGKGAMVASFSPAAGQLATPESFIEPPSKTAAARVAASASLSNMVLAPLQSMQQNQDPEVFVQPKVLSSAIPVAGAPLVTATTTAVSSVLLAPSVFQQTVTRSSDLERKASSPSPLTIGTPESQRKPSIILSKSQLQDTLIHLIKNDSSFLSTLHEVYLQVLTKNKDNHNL
# Variants of: B1
# Conditions: with zn446_human ZNF446, Q9NWS9
# Chain of zn446_human ZNF446, Q9NWS9 (Q9NWS9 whole entry): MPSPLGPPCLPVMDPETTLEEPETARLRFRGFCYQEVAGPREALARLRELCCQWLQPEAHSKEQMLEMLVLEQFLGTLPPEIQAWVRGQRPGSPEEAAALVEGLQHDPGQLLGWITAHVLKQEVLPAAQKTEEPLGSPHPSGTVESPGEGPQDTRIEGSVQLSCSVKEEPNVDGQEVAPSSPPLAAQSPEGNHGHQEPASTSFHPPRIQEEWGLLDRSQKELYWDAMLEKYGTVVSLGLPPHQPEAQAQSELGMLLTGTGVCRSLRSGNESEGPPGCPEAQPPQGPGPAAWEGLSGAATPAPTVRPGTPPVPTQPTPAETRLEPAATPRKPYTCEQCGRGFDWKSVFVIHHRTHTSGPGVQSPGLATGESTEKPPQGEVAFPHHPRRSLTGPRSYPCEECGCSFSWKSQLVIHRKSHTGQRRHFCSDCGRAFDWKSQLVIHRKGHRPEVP
row,Variant,effect of a mutation on the interaction
1,T324I,with no effect

# Variants of: B1
# Conditions: with rgs20_human RGS20, O76081
# Chain of rgs20_human RGS20, O76081 (O76081 whole entry): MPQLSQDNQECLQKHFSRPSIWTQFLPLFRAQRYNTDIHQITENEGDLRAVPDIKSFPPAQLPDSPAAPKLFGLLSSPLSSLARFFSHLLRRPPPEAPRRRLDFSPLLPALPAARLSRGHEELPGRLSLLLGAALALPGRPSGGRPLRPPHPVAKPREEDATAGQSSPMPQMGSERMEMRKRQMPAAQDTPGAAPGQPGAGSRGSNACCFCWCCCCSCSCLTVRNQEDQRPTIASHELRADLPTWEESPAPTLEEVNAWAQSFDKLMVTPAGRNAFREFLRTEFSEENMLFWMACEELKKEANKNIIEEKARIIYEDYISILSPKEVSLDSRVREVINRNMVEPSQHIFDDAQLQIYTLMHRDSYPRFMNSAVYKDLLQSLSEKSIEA
row,Variant,effect of a mutation on the interaction
1,T324I,with no effect

# Variants of: B2
# Conditions: with goga2_human GOLGA2, Q08379
row,Variant,effect of a mutation on the interaction
1,T138M,disrupting interaction strength

# Variants of: B3
# Conditions: with cep95_human CEP95, Q96GE4
row,Variant,effect of a mutation on the interaction
1,R23H,with no effect

# Variants of: B4
# Conditions: with dcp1a_human DCP1A
row,Variant,effect of a mutation on the interaction
1,N95K,with no effect

# Reference: IntAct's records for PubMed 31515488
